B1: 3C7: Monoclonal antibody targeting Metalloprotease-Cleavage Sites of CD95L; light chain SEQ ID NO:16, heavy chain SEQ ID NO:17 (antibody, listed as Mus musculus, V domains shown)
VH: QVQLQQSGAELAKPGASVKMSCKTSGYTFTSYWMHWVKQRPGQGLEWIGYINPNTGYTEYIQRFRDKATLTADKSSGTAYMQLSSLTSEDSAVYYCAVDLGYWGQGTLVTVSA
VL: DIVMTQSPSSLAMSVGQKVTMSCKSSQSLLSSRTQKHYLAWYQQKPGQSPKLLVYFTSTRESGVPDRFIGSGSGTDFTLTISSVQAEDLALYYCKQHYNTPWTFGGGTKLEIK
B2: 9F5: Monoclonal antibody targeting Metalloprotease-Cleavage Sites of CD95L; light chain SEQ ID NO:18, heavy chain SEQ ID NO:19 (antibody, listed as Mus musculus, V domains shown)
VH: QVQLQQSGAELAKPGASVKMSCKASGYTFTTYWMHWVKQRPGQDLEWIGYINPRNGYTEYNQNFKDKATLTADKSSTTAFMQLSSLTSEDSALYYCAVDLGYWGQGTLVTVSA
VL: DIVMTQSPSSLAMSVGQKVTMNCKSSQSLLSSRNQKTYLAWYQQKPGQSPKLLVYFTSTRASGVPDRFIGSGGTDFTLTISSVQAEDLALYYCQQHYNTPWTFGGGTKLEIK

Experiments:
[1] = tested on: Jurkat cells; experiment: Jurkat cell death induced by mAb-pre-treated 1A12 cells, drop of mitochondrial transmembrane potential (DIOC6); type: cell-based; settings: 1A12 cells pre-treated 24 hours with 10 μg/mL mAb, then 4 hours with Jurkat cells
Procedure: (§1) FIG. 3. Antibody targeting the Metalloprotease-Cleavage Sites of CD95L (MCSCs) blocks the non-apoptotic functions of CD95L without affecting its apoptotic ones. A. WR19L (CD95L−) or 1A12 (CD95L+) cells were placed in the lower chamber of a Boyden chamber assay in the presence of the indicated mAbs ([…]). Triple negative breast cancer cell MDA-MB-231 was added to the upper part of the chamber and cell migration due to the gradient of metalloprotease-cleaved CD95L was evaluated after 24 hours by fixing and staining (Giemsa) migrating cells covering the lower side of the porous membrane. Left panel: Pictures of the Giemsa-stained MDA-MB-231 cells that migrated to the lower side of the membrane in the presence of WR19L (CD95L−) or 1A12 (CD95L+) cells and with isotypic (9E10) or anti-MCSC (3C7) monoclonal antibody. Right panel: Giemsa-stained MDA-MB-231 cells were lysed and absorbance was measured at a wavelength of 560 nm. Values represent the means and SEM of three independently performed experiments. **p<0.01 as calculated using two-tailed Mann-Whitney test. B. Upper panel: Jurkat cells are sensitive to the CD95-mediated apoptotic signal. […] Cell death was monitored by measuring the drop of mitochondrial transmembrane potential (Δψm). […] Cell death was monitored by measuring the drop of mitochondrial transmembrane potential (Δψm). […]

[2] = tested on: CD95L-expressing leukemic T cell 1A12; experiment: Expression level of membrane-bound CD95L on 1A12 cells by flow cytometry; type: cell-based; settings: 24 h, antibodies 10 pg/mL, GM6001 10 μM
Procedure: (§2) FIG. 2. Monoclonal antibodies targeting the Metalloprotease-Cleavage Sites of CD95L (MCSCs). […] Arrows represent putative cleavage site in CD95L sequence. […] Indicated peptides were injected in mice to generate monoclonal antibodies and three different hybridoma were selected regarding their ability to bind CD95L. […] B. Recombinant Ig-CD95L (100 ng) was pre-incubated for 15 min with indicated antibodies (100 pg/mL) and then treated for 1h with the indicated MMPs. The metalloprotease-cleaved fragment of Ig-CD95L (CD95L devoid of its released Ig domain of gp190) was monitored by immunoblotting. C. CD95L-expressing leukemic T cell 1A12 was incubated for 24 h with indicated antibodies ([…]) or the pan-MMP inhibitor GM6001 (10 μM) and the expression level of membrane-bound CD95L was assessed by flow cytometry. D. Supernatants were harvested from cells treated in C and the metalloprotease-cleaved CD95L was dosed by ELISA (Diaclone).

[3] = tested on: CD95L cleavage by MMP3; experiment: Cleavage of recombinant Ig-CD95L by MMP3 in vitro, cleaved fragment monitored by immunoblotting; type: biochemical, Homo sapiens; settings: Ig-CD95L 100 ng pre-incubated 15 min with antibody (100 pg/mL), then MMP 1 h
Sequence of CD95L cleavage by MMP3 (P48023 103-281 limits assumed): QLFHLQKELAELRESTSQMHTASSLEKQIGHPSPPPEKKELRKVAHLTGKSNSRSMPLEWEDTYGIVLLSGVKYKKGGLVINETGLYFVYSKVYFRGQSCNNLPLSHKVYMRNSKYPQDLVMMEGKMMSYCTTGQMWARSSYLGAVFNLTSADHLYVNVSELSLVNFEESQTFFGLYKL
Procedure: (§3) FIG. 2. Monoclonal antibodies targeting the Metalloprotease-Cleavage Sites of CD95L (MCSCs). A. Left panel: The extracellular region of CD95L encompassing amino acid residues 102 to 281 can be cleaved by metalloproteases at different sites. Arrows represent putative cleavage site in CD95L sequence. Right panel: Using three peptides (peptides 1, 2 and 3) covering most of the MCSCs of CD95L, we have generated monoclonal antibodies. Indicated peptides were injected in mice to generate monoclonal antibodies and three different hybridoma were selected regarding their ability to bind CD95L. According to their affinity for the indicated peptides (assessed using ELISA), the 3C7 epitope should cover the […] sequence (SEQ ID NO:24). […] The metalloprotease-cleaved fragment of Ig-CD95L (CD95L devoid of its released Ig domain of gp190) was monitored by immunoblotting. […] CD95L-expressing leukemic T cell 1A12 was incubated for 24 h with indicated antibodies ([…]) or the pan-MMP inhibitor GM6001 (10 μM) and the expression level of membrane-bound CD95L was assessed by flow cytometry. […]
(§4) We have generated different extracellular regions of CD95L fused to large domains including the Ig domain of the gp190 (LIF receptor). […] The privileged cleavage sites (^113EL^114 for MMPs and ^129KQ^130 for ADAM) were then determined from MS/MS sequencing of the resulting cleavage products. […]

[4] = tested on: CD95L cleavage by MMP2; experiment: Cleavage of recombinant Ig-CD95L by MMP2 in vitro, cleaved fragment monitored by immunoblotting; type: biochemical, Homo sapiens; settings: Ig-CD95L 100 ng pre-incubated 15 min with antibody (100 pg/mL), then MMP 1 h
Sequence of CD95L cleavage by MMP2 (P48023 103-281 limits assumed): as above
Procedure: as §3, §4

[5] = tested on: s-CD95L release from 1A12 cells; experiment: Metalloprotease-cleaved CD95L dosed by ELISA in supernatants of 1A12 cells; type: cell-based; settings: 1A12 cells treated 24 hours, vs isotype (anti-myc 9E10 mAb) control
Procedure: as §2

[6] = tested on: triple negative breast cancer cells MDA-MB-231; experiment: Boyden chamber assay, migration of MDA-MB-231 cells towards 1A12 (CD95L+) cells; type: cell-based; settings: 1A12 (CD95L+) cells in lower chamber, mAb 10 pg/mL, 24 hours
Procedure: as §1

Molecule | Apoptotic function of membrane-bound CD95L [1] | Expression level of membrane-bound CD95L [2] | Cleavage of CD95L by MMP3 in vitro [3] | Cleavage of CD95L by MMP2 in vitro [4] | Concentrations of s-CD95L in supernatant [5] | Generation of s-CD95L promoting migration of MDA-MB-231 cells [6]
B1 | did not prevent the apoptotic function | augmentation of m-CD95L similar to that observed with the broad spectrum MMP inhibitor GM6001 | efficiently abrogated the cleavage | efficiently abrogated the cleavage | significantly reduced | inhibited
B2 |  | did not alter | efficiently abrogated the cleavage | efficiently abrogated the cleavage |  | 

— patent publication US20250163169A1, “ANTIBODIES FOR PREVENTING THE CLEAVAGE OF CD95L BY METALLOPROTEASES” (INSTITUT NATIONAL DE LA SANTÉ ET DE LA RECHERCHE MÉDICALE, priority 2022, published 2025)
